Laboratory results taken from US5786328.

Legend:
[1] = molecular target: tissue factor-Factor VIIa (human) (UniProt P13726)
Human Factor XIa (human) [2] = molecular target: Human Factor XIa (human) (UniProt P03951)
[3] = molecular target: Human plasma kallikrein (human) (UniProt P03952)
Human Factor XIa (human) [4] = molecular target: Human Factor XIa (human) (UniProt P03951); experiment: inhibition of FXIa, chromogenic substrate, fit for tight-binding inhibitors (apparent Ki*)
Human Factor XIa (human) [5] = molecular target: Human Factor XIa (human) (UniProt P03951); remark: listed apart in the source
[6] = molecular target: Human plasma kallikrein (human) (UniProt P03952); experiment: inhibition of human plasma kallikrein, substrate S2302, fit for tight-binding inhibitors (apparent Ki*)

fraction of remaining proteolytic activity with 100 nM inhibitor (fraction of uninhibited rate) [1]: 0.6
fraction of remaining proteolytic activity with 100 nM inhibitor (fraction of uninhibited rate) (Human Factor XIa (human) [2]): 0.03
fraction of remaining proteolytic activity with 100 nM inhibitor (fraction of uninhibited rate) [3]: 0.81
Ki (Human Factor XIa (human) [4]): 2.7 nM
fold prolongation of the clotting time of normal human plasma, APTT assay (Human Factor XIa (human) [5]): 2.8 fold
Ki [6]: 340 nM
Substance: APPI (Alzheimer's amyloid β-protein precursor inhibitor)
